Test results reported in the supplement of paper PMC11136658.

Tested on: peptide library, one residue held at a place counted from the Y acceptor
Assay: relative phosphorylation of the sub-library (ratio to the mean residue at this position); higher = residue favoured
Method in brief: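 Purified recombinant kinases were given 50 μM ATP with γ-32P-ATP and biotinylated Tyr-centred peptide library mixtures for 90 min in 384-well plates. Peptides bound to streptavidin membranes were rinsed and quantified by phosphorimaging, and intensities were normalized per position by the sum of the 18 randomized residues (16 with the Ser/Thr-free library) and multiplied by that number. The reported values are phosphorylation relative to the mean randomized residue.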

Chain of BTK, construct: Full length, human (Q06187 whole entry, looked up): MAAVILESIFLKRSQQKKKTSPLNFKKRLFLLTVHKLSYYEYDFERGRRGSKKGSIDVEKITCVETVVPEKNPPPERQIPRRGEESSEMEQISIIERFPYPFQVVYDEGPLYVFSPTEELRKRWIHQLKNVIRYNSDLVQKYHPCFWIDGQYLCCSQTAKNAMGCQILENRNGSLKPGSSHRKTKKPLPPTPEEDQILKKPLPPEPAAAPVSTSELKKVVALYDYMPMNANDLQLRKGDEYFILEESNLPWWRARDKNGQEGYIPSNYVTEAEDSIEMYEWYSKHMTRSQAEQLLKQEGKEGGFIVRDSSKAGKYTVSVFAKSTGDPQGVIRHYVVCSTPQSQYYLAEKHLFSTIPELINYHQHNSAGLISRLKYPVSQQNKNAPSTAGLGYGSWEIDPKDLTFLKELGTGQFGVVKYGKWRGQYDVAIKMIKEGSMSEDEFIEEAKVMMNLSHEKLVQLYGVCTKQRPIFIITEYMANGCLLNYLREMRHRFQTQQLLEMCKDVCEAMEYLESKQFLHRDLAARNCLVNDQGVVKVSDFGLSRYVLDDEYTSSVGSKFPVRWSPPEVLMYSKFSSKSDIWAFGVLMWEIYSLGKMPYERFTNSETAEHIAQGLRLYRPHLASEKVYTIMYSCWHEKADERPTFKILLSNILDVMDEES
Chain of CSK, construct: Full length, human (P41240 whole entry, looked up): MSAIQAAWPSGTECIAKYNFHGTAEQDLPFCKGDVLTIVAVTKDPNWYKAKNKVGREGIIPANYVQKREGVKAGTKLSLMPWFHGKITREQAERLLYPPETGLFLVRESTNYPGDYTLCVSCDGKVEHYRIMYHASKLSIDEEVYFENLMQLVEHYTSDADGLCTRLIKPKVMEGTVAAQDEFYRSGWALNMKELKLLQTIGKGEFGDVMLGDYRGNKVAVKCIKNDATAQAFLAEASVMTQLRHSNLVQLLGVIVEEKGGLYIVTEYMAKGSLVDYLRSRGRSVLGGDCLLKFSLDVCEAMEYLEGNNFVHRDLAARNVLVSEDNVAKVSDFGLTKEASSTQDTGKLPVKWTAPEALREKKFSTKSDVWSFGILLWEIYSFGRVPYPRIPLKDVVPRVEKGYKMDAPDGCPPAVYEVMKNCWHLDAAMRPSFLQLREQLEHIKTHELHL
Chain of CSF1R, construct: aa539-end, human (P07333 539-972, looked up): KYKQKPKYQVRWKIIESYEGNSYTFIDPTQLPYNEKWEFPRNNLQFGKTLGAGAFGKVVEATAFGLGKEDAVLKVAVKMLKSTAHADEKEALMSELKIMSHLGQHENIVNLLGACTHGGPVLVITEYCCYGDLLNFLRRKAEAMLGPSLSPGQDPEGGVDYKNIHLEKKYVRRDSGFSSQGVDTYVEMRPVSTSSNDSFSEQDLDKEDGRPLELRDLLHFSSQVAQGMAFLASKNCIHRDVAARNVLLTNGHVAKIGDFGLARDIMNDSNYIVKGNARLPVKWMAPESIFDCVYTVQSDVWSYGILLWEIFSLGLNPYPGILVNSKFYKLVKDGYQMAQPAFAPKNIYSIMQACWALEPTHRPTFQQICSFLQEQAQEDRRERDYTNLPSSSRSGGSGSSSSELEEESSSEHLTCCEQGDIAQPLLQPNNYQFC

BTK, construct: Full length, human (from UniProt Q06187)
relative phosphorylation
Settings | at +1 | at +2 | at +3 | at +4 | at +5 | at -1 | at -2 | at -3 | at -4 | at -5
A fixed | 1.39 | 0.87 | 1.06 | 0.754 | 0.911 | 0.443 | 0.964 | 0.709 | 1.04 | 0.982
D fixed | 0.67 | 0.561 | 0.345 | 0.63 | 0.755 | 0.375 | 1.14 | 1.22 | 1.19 | 1.1
E fixed | 1.36 | 1.13 | 0.302 | 0.661 | 0.676 | 0.416 | 1.24 | 1.71 | 1.41 | 0.914
F fixed | 0.954 | 1.32 | 1.41 | 1.1 | 1.46 | 1.97 | 0.934 | 1.43 | 1.13 | 1.21
G fixed | 1.1 | 0.546 | 0.759 | 0.928 | 0.941 | 0.308 | 1.04 | 0.779 | 1.03 | 1.01
H fixed | 0.657 | 0.679 | 0.995 | 1.02 | 0.909 | 1.3 | 0.871 | 1 | 0.984 | 1.02
I fixed | 1.17 | 1.19 | 1.42 | 1.01 | 0.796 | 2.79 | 0.874 | 0.799 | 1.01 | 1.04
K fixed | 0.398 | 0.873 | 1.01 | 1.17 | 1.05 | 0.294 | 0.708 | 0.644 | 0.736 | 0.884
L fixed | 1.03 | 0.884 | 0.801 | 0.915 | 1.05 | 2.9 | 1.3 | 0.812 | 1.1 | 0.941
M fixed | 1.43 | 1.05 | 0.925 | 1.38 | 1.24 | 1.55 | 0.796 | 1.11 | 1.03 | 1.18
N fixed | 0.466 | 0.827 | 0.886 | 0.779 | 0.949 | 0.589 | 1.21 | 1.1 | 0.823 | 1.17
P fixed | 0.181 | 0.636 | 0.553 | 0.772 | 1.23 | 0.526 | 1.19 | 0.967 | 1.03 | 0.99
Q fixed | 0.963 | 0.923 | 0.722 | 1.07 | 0.816 | 0.486 | 0.966 | 0.892 | 1.01 | 0.937
R fixed | 0.524 | 1.26 | 1.62 | 1.53 | 1.25 | 0.279 | 0.771 | 0.729 | 0.964 | 0.985
S fixed | 0.888 | 1.05 | 1.14 | 0.749 | 0.755 | 0.375 | 1.15 | 0.814 | 0.725 | 0.766
T fixed | 0.812 | 1.27 | 0.946 | 0.917 | 0.816 | 0.788 | 0.868 | 0.745 | 0.658 | 0.769
V fixed | 1.58 | 1.27 | 1.3 | 0.944 | 0.892 | 1.55 | 1.07 | 0.838 | 0.926 | 0.965
W fixed | 2.42 | 1.67 | 1.8 | 1.68 | 1.5 | 1.06 | 0.902 | 1.7 | 1.21 | 1.14
pThr fixed | 1.09 | 1.45 | 0.357 | 0.523 | 0.47 | 0.911 | 1.01 | 0.846 | 0.896 | 0.954
pTyr fixed | 1.22 | 1.58 | 0.433 | 0.603 | 0.684 | 1.26 | 1.14 | 1.15 | 1.26 | 1.09

CSF1R, construct: aa539-end, human (from UniProt P07333)
relative phosphorylation
Settings | at +1 | at +2 | at +3 | at +4 | at +5 | at -1 | at -2 | at -3 | at -4 | at -5
A fixed | 0.891 | 0.881 | 0.64 | 0.958 | 0.873 | 0.884 | 1.16 | 1.02 | 1.07 | 1.09
D fixed | 0.331 | 0.636 | 0.32 | 0.718 | 0.844 | 1.13 | 1.11 | 1.36 | 1.3 | 1.14
E fixed | 0.638 | 0.924 | 0.246 | 0.784 | 0.832 | 1.06 | 1.17 | 1.77 | 1.47 | 1.06
F fixed | 1.89 | 1.09 | 1.97 | 1.27 | 0.977 | 1.04 | 0.617 | 0.741 | 0.821 | 0.963
G fixed | 0.444 | 0.508 | 0.633 | 1.15 | 1.43 | 0.656 | 1.22 | 1.27 | 1.23 | 1.2
H fixed | 1.74 | 0.993 | 0.863 | 1.15 | 1.05 | 1.77 | 0.992 | 0.973 | 0.923 | 1
I fixed | 1.67 | 1.04 | 2.14 | 0.891 | 0.781 | 1.62 | 0.834 | 0.63 | 0.846 | 0.783
K fixed | 0.674 | 0.951 | 0.632 | 1.01 | 1.05 | 0.535 | 0.751 | 0.731 | 0.878 | 0.98
L fixed | 1.3 | 1.21 | 1.93 | 0.874 | 0.689 | 1.23 | 0.952 | 0.763 | 0.858 | 0.817
M fixed | 1.2 | 1.05 | 1.67 | 1.06 | 0.927 | 0.91 | 0.757 | 0.755 | 0.863 | 0.909
N fixed | 0.512 | 0.965 | 0.523 | 0.975 | 1.08 | 1.15 | 1.16 | 1.21 | 0.936 | 1.12
P fixed | 0.565 | 0.847 | 1.13 | 0.922 | 1.34 | 1.05 | 1.6 | 1.17 | 1.34 | 1.29
Q fixed | 0.973 | 0.989 | 0.519 | 0.965 | 0.931 | 0.919 | 1.03 | 1.07 | 0.921 | 0.93
R fixed | 0.745 | 1.31 | 0.929 | 1.36 | 1.2 | 0.474 | 0.844 | 0.786 | 0.782 | 0.871
S fixed | 0.721 | 0.893 | 0.604 | 1.02 | 1.24 | 0.687 | 1.2 | 1.14 | 0.97 | 1.03
T fixed | 0.938 | 1.11 | 0.856 | 1.04 | 1.07 | 1.08 | 1.08 | 1.12 | 0.899 | 1.01
V fixed | 1.56 | 1.11 | 1.47 | 0.851 | 0.756 | 1.12 | 0.939 | 0.748 | 0.866 | 0.859
W fixed | 1.2 | 1.49 | 0.91 | 1.01 | 0.928 | 0.678 | 0.575 | 0.745 | 1.02 | 0.943
pThr fixed | 0.739 | 1.17 | 0.232 | 0.432 | 0.567 | 1.02 | 0.996 | 1.2 | 1.12 | 0.956
pTyr fixed | 1.61 | 1.25 | 0.341 | 0.698 | 0.773 | 1.87 | 1.01 | 1.11 | 1.16 | 1

CSK, construct: Full length, human (from UniProt P41240)
relative phosphorylation
Settings | at +1 | at +2 | at +3 | at +4 | at +5 | at -1 | at -2 | at -3 | at -4 | at -5
A fixed | 1.41 | 0.875 | 0.728 | 0.981 | 1.32 | 0.815 | 1.34 | 0.852 | 1.16 | 1.05
D fixed | 0.482 | 1.38 | 0.566 | 1.08 | 0.834 | 0.976 | 0.757 | 1.29 | 1.3 | 1.07
E fixed | 0.852 | 1.46 | 0.505 | 1.36 | 0.948 | 1.78 | 0.958 | 2.98 | 1.99 | 1.16
F fixed | 1.31 | 1.36 | 2.01 | 1.1 | 1.07 | 1.38 | 0.554 | 0.79 | 1.12 | 1.37
G fixed | 0.515 | 0.485 | 0.648 | 1.17 | 1.14 | 0.362 | 1.07 | 0.915 | 1.23 | 1.15
H fixed | 1.03 | 0.914 | 0.901 | 1.22 | 1.13 | 1.2 | 0.684 | 0.839 | 0.869 | 0.994
I fixed | 1.71 | 1.07 | 2.04 | 0.759 | 0.869 | 2.44 | 1.14 | 0.774 | 0.913 | 1.05
K fixed | 0.4 | 0.606 | 0.389 | 0.815 | 0.684 | 0.472 | 0.659 | 0.867 | 0.812 | 0.748
L fixed | 1.13 | 1.08 | 1.07 | 0.746 | 1.02 | 1.24 | 0.761 | 0.763 | 0.86 | 1.07
M fixed | 1.1 | 0.839 | 1.01 | 1.06 | 0.937 | 0.9 | 0.558 | 0.832 | 0.866 | 1.01
N fixed | 0.362 | 1.06 | 0.509 | 0.875 | 0.974 | 0.679 | 0.765 | 0.901 | 0.705 | 0.845
P fixed | 0.23 | 0.59 | 1.02 | 1.08 | 1.39 | 0.395 | 2.04 | 0.944 | 1.03 | 1.01
Q fixed | 0.988 | 0.791 | 0.607 | 0.992 | 0.954 | 0.691 | 0.952 | 0.772 | 1.07 | 0.839
R fixed | 0.524 | 0.757 | 0.46 | 0.859 | 0.717 | 0.409 | 0.738 | 0.976 | 0.758 | 0.735
S fixed | 0.787 | 0.978 | 0.734 | 0.868 | 1.14 | 0.533 | 1.47 | 0.958 | 0.826 | 0.943
T fixed | 0.803 | 0.829 | 0.689 | 0.879 | 1.07 | 0.926 | 1.16 | 0.918 | 0.715 | 0.897
V fixed | 1.67 | 1.03 | 1.6 | 0.831 | 0.769 | 1.65 | 1.81 | 0.769 | 0.778 | 0.831
W fixed | 2.7 | 1.9 | 2.52 | 1.34 | 1.03 | 1.16 | 0.576 | 0.859 | 1.01 | 1.22
pThr fixed | 1.23 | 1.87 | 0.582 | 1.12 | 0.922 | 1.02 | 0.787 | 1.35 | 1.03 | 1.02
pTyr fixed | 3.21 | 7.03 | 1.05 | 1.36 | 1.64 | 4.72 | 1.71 | 2.14 | 2.83 | 1.74
